US20130171217A1, “ENZYMATIC PERACID GENERATION FOR USE IN SKIN CARE PRODUCTS” (E I DU PONT DE NEMOURS AND COMPANY, priority 2010, published 2013)

Assay: Perhydrolase activity of targeted hydrolases, ABTS assay
Type: biochemical
Method: The ABTS assay was performed as follows: hair samples treated as described above were transferred to new 2-mL microcentrifuge tubes (Eppendorf Protein LoBind; Eppendorf North America, Hauppauge, N.Y.) To each tube was added 480 μL of PAH buffer ([…]), 14 μL of 39% hydrogen peroxide (Sigma 3410), and 6 μL triacetin (Sigma-Aldrich W200700). The perhydrolase reaction was allowed to proceed for 10 minutes at room temperature (˜22-25° C.). The reaction was stopped by diluting aliquots 10×, 100× and 1000× with 10 mM phosphoric acid. For detection 50 μL of 1 M acetic acid, 50 μL of 40 mg/mL potassium iodide, and 50 μL of 4 mM ABTS (2,2′-azino-bis(3-ethylbenzthiazoline-6-sulphonic acid; Sigma, St Louis, Mo.) were added to 50 μL of the above dilutions. Color was allowed to develop for 10 minutes and read in a spectrophotometer at 405 nm. Values from no-enzyme controls were subtracted to yield values attributable only to enzyme activity. A standard curve of OD 405 nm vs PAA concentration in ppm yielded a conversion factor of 8.75, such that an OD 405 nm of 1.0 corresponded to approximately 8.75 ppm PAA. This value was then multiplied by the appropriate dilution to arrive at the PAA concentration in the perhydrolase reaction.
The perhydrolase activity of the enzymes targeted to hair with a variety of targeting domains produced as described in Example 32 was measured with the ABTS assay.

[1] = 1 m Na acetate at pH 5.5 instead of triacetin

Row | Molecule | Specific perhydrolase activity [1] [µmol/mg/min] | Specific perhydrolase activity (triacetin at pH 7.5) [µmol/mg/min]
1 | SEQ ID NO: 335: L29P variant of Pseudomonas fluorescens hydrolase fused to hair binding domain HC1010 via a flexible linker (protein) MSTFVAKDGTQIYFKDWGSGKPVLFSHGWPLDADMWEYQMEYLSSRGYRTIAFDRRGFGRSDQPWTGNDYDTFADDIAQLIEHLDLKEVTLVGFSMGGGDVARYIARHGSARVAGLVLLGAVTPLFGQKPDYPQGVPLDVFARFKTELLKDRAQFISDFNAPFYGINKGQVVSQGVQTQTLQIALLASLKATVDCVTAFAETDFRPDMAKIDVPTLVIHGDGDQIVPFETTGKVAAELIKGAELKVYKDAPHGFAVTHAQQLNEDLLAFLKRGPGSGGAGSPGSAGGPGSAQSQLPDKHSGLHERAPQRYGSGTAEIQSSKNPNPHPQRSWTNGSGHNHMQERYTDPQHSPSVNGLGSGHDHKNQKETHQRHAASSHHHHHH | 1.5 | 
2 | SEQ ID NO: 319: acetyl xylan esterase from Lactococcus lactis fused at its C-terminus to hair binding domain HC263 via a flexible linker (protein) MTKINNWQDYQGSSLKPEDFDKFWDEKINLVSNHQFEFELIEKNLSSKVVNFYHLWFTAIDGAKIHAQLIVPKNLKEKYPAILQFHGYHCDSGDWVDKIGIVAEGNVVLALDCRGQGGLSQDNIQTMGMTMKGLIVRGIDEGYENLYYVRQFMDLITATKILSEFDFVDETNISAQGASQGGALAVACAALSPLIKKVTATYPFLSDYRKAYELGAEESAFEELPYWFQFKDPLHLREDWFFNQLEYIDIQNLAPRIKAEVIWILGGKDTVVPPITQMAAYNKIQSKKSLYVLPEYGHEYLPKISDWLRENQGPGSGGAGSPGSAGGPGSPSAQSQLPDKHSGLHERAPQRYGPEPEPEPEPIPEPPKEAPVVIEKPKPKPKPKPKPPAHDHKNQKETHQRHAAGSGGGGSPHHHHHH |  | 99
3 | SEQ ID NO: 329: S54V variant of Mycobacterium smegmatis aryl esterase fused to the charged peptide (GK)5-His6 via a flexible linker (protein) MAKRILCFGDSLTWGWVPVEDGAPTERFAPDVRWTGVLAQQLGADFEVIEEGLVARTTNIDDPTDPRLNGASYLPSCLATHLPLDLVIIMLGTNDTKAYFRRTPLDIALGMSVLVTQVLTSAGGVGTTYPAPKVLVVSPPPLAPMPHPWFQLIFEGGEQKTTELARVYSALASFMKVPFFDAGSVISTDGVDGIHFTEANNRDLGVALAEQVRSLLGPGSGGAGSPGSAGGPGSGKGKGKGKGKHHHHHH |  | 264
4 | SEQ ID NO: 327: S54V variant of Mycobacterium smegmatis aryl esterase fused to hair binding domain HC1010 via a flexible linker (protein) MAKRILCFGDSLTWGWVPVEDGAPTERFAPDVRWTGVLAQQLGADFEVIEEGLVARTTNIDDPTDPRLNGASYLPSCLATHLPLDLVIIMLGTNDTKAYFRRTPLDIALGMSVLVTQVLTSAGGVGTTYPAPKVLVVSPPPLAPMPHPWFQLIFEGGEQKTTELARVYSALASFMKVPFFDAGSVISTDGVDGIHFTEANNRDLGVALAEQVRSLLGPGSGGAGSPGSAGGPGSAQSQLPDKHSGLHERAPQRYGSGTAEIQSSKNPNPHPQRSWTNGSGHNHMQERYTDPQHSPSVNGLGSGHDHKNQKETHQRHAASSHHHHHH |  | 20
5 | SEQ ID NO: 331: L29P variant of the hydrolase from Pseudomonas fluorescens fused to hair binding domain HC263 via a flexible linker (protein) MSTFVAKDGTQIYFKDWGSGKPVLFSHGWPLDADMWEYQMEYLSSRGYRTIAFDRRGFGRSDQPWTGNDYDTFADDIAQLIEHLDLKEVTLVGFSMGGGDVARYIARHGSARVAGLVLLGAVTPLFGQKPDYPQGVPLDVFARFKTELLKDRAQFISDFNAPFYGINKGQVVSQGVQTQTLQIALLASLKATVDCVTAFAETDFRPDMAKIDVPTLVIHGDGDQIVPFETTGKVAAELIKGAELKVYKDAPHGFAVTHAQQLNEDLLAFLKRGPGSGGAGSPGSAGGPGSPSAQSQLPDKHSGLHERAPQRYGPEPEPEPEPIPEPPKEAPVVIEKPKPKPKPKPKPPAHDHKNQKETHQRHAAGSGGGGSPHHHHHH | 0.37 | 
6 | SEQ ID NO: 333: L29P variant of Pseudomonas fluorescens hydrolase fused to hair binding domain HC263KtoR via a flexible linker (protein) MSTFVAKDGTQIYFKDWGSGKPVLFSHGWPLDADMWEYQMEYLSSRGYRTIAFDRRGFGRSDQPWTGNDYDTFADDIAQLIEHLDLKEVTLVGFSMGGGDVARYIARHGSARVAGLVLLGAVTPLFGQKPDYPQGVPLDVFARFKTELLKDRAQFISDFNAPFYGINKGQVVSQGVQTQTLQIALLASLKATVDCVTAFAETDFRPDMAKIDVPTLVIHGDGDQIVPFETTGKVAAELIKGAELKVYKDAPHGFAVTHAQQLNEDLLAFLKRGPGSGGAGSPGSAGGPGSPSAQSQLPDRHSGLHERAPQRYGPEPEPEPEPIPEPPREAPVVIERPRPRPRPRPRPPAHDHRNQRETHQRHAAGSGGGGSPHHHHHH | 1.45 | 
7 | SEQ ID NO: 321: acetyl xylan esterase from Mesorhizobium loti fused at its C-terminus to hair binding domain HC263 via a flexible linker (protein) MPFPDLIQPELGAYVSSVGMPDDFAQFWTSTIAEARQAGGEVSIVQAQTTLKAVQSFDVTFPGYGGHPIKGWLILPTHHKGRLPLVVQYIGYGGGRGLAHEQLHWAASGFAYFRMDTRGQGSDWSVGETADPVGSTSSIPGFMTRGVLDKNDYYYRRLFTDAVRAIDALLGLDFVDPERIAVCGDSQGGGISLAVGGIDPRVKAVMPDVPFLCDFPRAVQTAVRDPYLEIVRFLAQHREKKAAVFETLNYFDCVNFARRSKAPALFSVALMDEVCPPSTVYGAFNAYAGEKTITEYEFNNHEGGQGYQERQQMTWLSRLFGVGGPGSGGAGSPGSAGGPGSPSAQSQLPDKHSGLHERAPQRYGPEPEPEPEPIPEPPKEAPVVIEKPKPKPKPKPKPPAHDHKNQKETHQRHAAGSGGGGSPHHHHHH |  | 34
8 | SEQ ID NO: 325: S54V variant of Mycobacterium smegmatis aryl esterase fused to hair binding domain HC263KtoR via a flexible linker (protein) MAKRILCFGDSLTWGWVPVEDGAPTERFAPDVRWTGVLAQQLGADFEVIEEGLVARTTNIDDPTDPRLNGASYLPSCLATHLPLDLVIIMLGTNDTKAYFRRTPLDIALGMSVLVTQVLTSAGGVGTTYPAPKVLVVSPPPLAPMPHPWFQLIFEGGEQKTTELARVYSALASFMKVPFFDAGSVISTDGVDGIHFTEANNRDLGVALAEQVRSLLGPGSGGAGSPGSAGGPGSPSAQSQLPDRHSGLHERAPQRYGPEPEPEPEPIPEPPREAPVVIERPRPRPRPRPRPPAHDHRNQRETHQRHAAGSGGGGSPHHHHHH |  | 46
